Experimental data taken from IntAct's records for PubMed 18449195.

B1: SOSS complex subunit B1 (Homo sapiens), Q9BQ15 (parent)
chain: MTTETFVKDIKPGLKNLNLIFIVLETGRVTKTKDGHEVRTCKVADKTGSINISVWDDVGNLIQPGDIIRLTKGYASVFKGCLTLYTGRGGDLQKIGEFCMVYSEVPNFSEPNPEYSTQQAPNKAVQNDSNPSASQPTTGPSAASPASENQNGNGLSAPPGPGGGPHPPHTPSHPPSTRITRSQPNHTPAGPPGPSSNPVSNGKETRRSSKR

Variants of: B1
Conditions: with atm_human ATM

**Q.** For T117A, which “effect of a mutation on the interaction” value is on record?
**A.** disrupting interaction
